Reference: paper PMC6992696, “Supramolecular tholos-like architecture constituted by archaeal proteins without functional annotation” (Scientific Reports, 2020)

B3: PbaA (PF0015) from Pyrococcus furiosus, full-length (natural protein, UniProt Q8U4Q9 1-242, looked up)
chain: MEEKKPVNLVLPEVENAIFIEGYPGVGLVGHIAANFLAKELDMDLIGYVDSLFIPPMSLILEGRPTPPLRFYGKNNIIIAIADIFLPPTLVNEIAKEIVNYLKKVNAEKVISLAGMGIGFFKDTFEVWGIGGSEEENKELESLGVKILKYGSITGMSGKLLWEASRAGLKSYVLLGETFGDRPDPRAAANVVEVLNKMLGLNVSVEPLLKEAEMIEEQLRRMHEQMEEARRKMERQYETMYL
notes: PbaA (PF0015), Pyrococcus furiosus, full-length; cloned from P. furiosus genomic DNA; Homopentameric ring when isolated; two pentameric rings in the 10:10 complex with PF0014; also called full-length PbaA; PbaA pentamer

Assays:
[1] = molecular target: PbaA_(CΔ30), mutant PbaA with deletion of 30 C-terminal amino acid residues (Pyrococcus furiosus); test: SEC + other: negative stain EM; PbaA_(CΔ30) alone, in the absence of PF0014
[2] = molecular target: PbaA_(CΔ30), mutant PbaA with deletion of 30 C-terminal amino acid residues (Pyrococcus furiosus); test: cryo-EM structure; purified PbaA_(CΔ30)/PF0014 complex; map EMD-0755 at 7.3 Å with D5 symmetry and 8.5 Å with C1 symmetry
[3] = molecular target: the molecule itself; test: cryo-EM structure; hexahistidine-tagged PbaA/Trx-PF0014 complex treated with excess anti-histidine-tag monoclonal antibody for 2 h at 4 °C; map at 14 Å, C1 symmetry
[4] = molecular target: B3; test: native MS; purified PbaA/PF0014 complex (20 μM) exchanged into 150 mM ammonium acetate pH 9.0, 2-fold diluted, nanoflow ESI, SYNAPT G2-Si; conditions: both partners purified
[5] = molecular target: the molecule itself; test: HS-AFM; isolated proteins, top views on APTES-mica, tapping mode, room temperature

**Q.** With “PbaA_(CΔ30), mutant PbaA with deletion of 30 C-terminal amino acid residues (domain or fragment)” as the molecule, how does the stoichiometry N [1] read?
**A.** Its stoichiometry N is 14 protomers.

**Q.** And the stoichiometry N [2]?
**A.** Its stoichiometry N is 5 protomers.

B1: N-terminally hexahistidine-tagged PbaA (natural protein, Pyrococcus furiosus)
chain: MEEKKPVNLVLPEVENAIFIEGYPGVGLVGHIAANFLAKELDMDLIGYVDSLFIPPMSLILEGRPTPPLRFYGKNNIIIAIADIFLPPTLVNEIAKEIVNYLKKVNAEKVISLAGMGIGFFKDTFEVWGIGGSEEENKELESLGVKILKYGSITGMSGKLLWEASRAGLKSYVLLGETFGDRPDPRAAANVVEVLNKMLGLNVSVEPLLKEAEMIEEQLRRMHEQMEEARRKMERQYETMYL
notes: PbaA (PF0015), Pyrococcus furiosus; The His tag was labelled with a monoclonal anti-histidine-tag antibody (R&D Systems) in the cryo-EM sample; the antibody is only a tool; May be the same preparation as m1 if the tag was never removed there; not shown: His6, N-terminal, kept
**Q.** Which “stoichiometry N” value [3] does the source give for B1 here?
**A.** The value was 5 protomers.

B2: PF0014 from Pyrococcus furiosus (natural protein, UniProt Q8U4R0 1-128, looked up)
chain: MVVEIPLLSGIARRTLDALMRNPIRTVEIRNARNYMTLEKVKEGDLVFLTYESLEDVMRGTEGIIAMVTRMEKSHQRVPWEESDEREISICRVQLKLVGLGRVVEVQEKNGVVFVKVREMLHHEISMG
notes: PF0014, Pyrococcus furiosus, an archaeal protein without functional annotation; Monomeric by HS-AFM when isolated; ten copies in the complex with PbaA
**Q.** Which “stoichiometry N” value [4] does the source give for B2 here?
**A.** The value was 1 PF0014 per PbaA (10:10).

**Q.** B3 was tested. Which “stoichiometry N” value [5] did it give?
**A.** Its value is 5 protomers.
